Experimental data published in patent US8822187B1, “Polypeptides, nucleic acid molecules, and methods for synthesis of triterpenes” (University of Kentucky Research Foundation, priority 2011, dated 2014).

Legend:
[1] = substrate: CC(C)=CCC/C(C)=C/CC/C(C)=C/CO[P@@](=O)(O)OP(=O)(O)O; assay: purified protein, by the assay type; details: other: purified SSL-1, 3H-FPP, 0.1% triton X-100, 15 min at 37° C., PSPP as sole reaction product
[2] = Purified SSL-1 mixed with B. braunii algal cell-free lysate, incorporation of radiolabeled FPP into botryococcene; assay type: biochemical, Botryococcus braunii; details: purified SSL-1 mixed with algal cell-free lysate
Procedure: FIG. 4 depicts the dependence of the squalene synthase-like-1 enzyme on algal lysate for botryococcene biosynthesis. […] The SSL-1 gene containing a 5′ terminal sequence coding for a hexa-histidine tag was over-expressed in E. coli and the corresponding enzyme purified by cobalt affinity chromatography according to the manufacturer (Sigma). B. braunii lysate was prepared from cells collected at the indicated stages of culture development according to the procedure described by Okada, S. et al. (Arch Biochem Biophys 422: 110-118) and 10 μg of lysate protein was used per assay. Assays were incubated at 37° C. for 1 h, then the reaction products extracted with hexane. Aliquots of the hexane extracts was separated by silica TLC and the radioactivity migrating to zones corresponding to authentic standards of botryococcene and squalene determined by scintillation counting. Data represents mean±s.e.m.
Typical enzyme assays were initiated by mixing aliquots of purified enzyme with 50 mM Mops, pH 7.3, 20 mM MgCl2, 2.5 mM 2-mercaptoethanol, 10 μM [1-^3H]-FPP (˜2×10^5 dpm total), and 2 mM NADPH in total reaction volume of 50 μl. Reactions were incubated at 37° C. for 1 h and then extracted with 100 μl n-hexane or 100 ul MTBE. […] The standards were visualized with iodine vapors and TLC zones corresponding to the standards were scrapped and analyzed by scintillation spectrometry. […]

[3] = Primary enzyme assay with 3H-FPP, PSPP content by acid phosphatase assay; assay type: biochemical; details: 20 μg enzyme, 40 μM 3H-FPP, 37° C., 1 h
Procedure: (§1) Two primary enzyme assays (500 μl) were set up with 20 μg of purified SSL-1 or Nicotiana benthamiana squalene synthase (TSS) plus 40 μM ^3H-FPP. The assays were incubated at 37° C. for 1 h, then extracted 3× with 500 μl water saturated 1-butanol, pooled, and evaporated under a stream of nitrogen gas. The white residue was resuspended in 50 μl of 25 mM NH4HCO3 in 70% ethanol (v/v). An aliquot of the resuspension was analyzed by the acid phosphatase assay (described in supplemental FIG. 4) and shown to consist of 45% and 40% PSPP for the SSL-1 and TSS primary incubations, respectively. […] It was calculated that 1 μl of each resuspension contained ˜150 pmoles of 3H-PSPP. […] For comparison, enzyme assays were also set up containing 3 μM ^3H-FPP, 2 mM NADPH and either 1 μg each of SSL-1 plus SSL-3, or SSL-1 plus SSL-2. Additional control assays contained 5 μM ^3H-FPP, 2 mM NADPH, and either 1 μg of SSL-3 or SSL-2. The reactions were incubated at 37° C. for 15 min, stopped by addition of 50 μl 0.5 M EDTA, and extracted with 100 μl n-hexane. Aliquots of the hexane extracts, along with standards of squalene and botryococcene, were separated by silica TLC using n-hexane as the developing solvent. Standards were visualized with iodine vapors and the corresponding zones were analyzed by scintillation spectroscopy. […]

[4] = Substrate specificity of SSL-2 (bisfarnesyl ether formation); assay type: biochemical; details: 37° C., 1 h
Procedure: The radioactivity incorporated in the zones corresponding to bisfarnesyl ether were determined by scintillation counting. Data represents mean±S.E.M.

[5] = NADPH oxidation versus squalene and bisfarnesyl ether recovery; assay type: biochemical
Procedure: With reference to Table 2, Assays were performed as described above in the Methods except that an alternative reaction buffer (50 mM Tris pH 8.0, 250 mM NaCl, 20 mM MgCl2) was used to minimize spontaneous NADPH oxidation and prevent protein precipitation at high concentrations. […] An extinction coefficient of 6220/M/cm was used to calculate the amount of NADPH oxidized. No NADPH oxidation could be measured in complete reaction buffer without protein over a 1 h incubation. […] This background NADPH oxidation was subtracted from the experimental determined rates. The experimental enzyme assays contained either purified TSS (0.75 or 1.5 μg) or SSL-2 (8 or 16 μg) and 40 μM ^3H-FPP. Absorbance at […] was recorded every 2.5 min. for 15 minutes, after which the reaction was stopped by adding an equal volume of 0.5 M EDTA. The reaction mixture was collected, extracted with 200 μl of hexane and aliquots were separated by silica TLC along with standards of squalene and bisfarnesyl ether using hexane:MTBE (25:1) as the developing solvent. The standards were subsequently visualized with iodine vapor, and corresponding zones analyzed by scintillation spectroscopy. Data represents mean±S.E.M of duplicate samples.

[6] = Secondary enzyme assays of SSL-3 or SSL-2 with PSPP versus FPP; assay type: biochemical; details: 2 mM NADPH, 1 μg enzyme, 37° C., 15 min
Procedure: as §1

[7] = 100 μM NADPH, 40 μM 3H-FPP, 15 minutes, 23° C.

B1: Botryococcus braunii race B squalene synthase-like 1 (SSL-1), wild type, hexa-histidine tagged, SEQ ID NO: 2 (Botryococcus braunii) (protein)
chain: MTMHQDHGVMKDLVKHPNEFPYLLQLAATTYGSPAAPIPKEPDRAFCYNTLHTVSKGFPRFVMRLPQELQDPICIFYLLLRALDTVEDDMNLKSETKISLLRVFHEHCSDRNWSMKSDYGIYADLMERFPLVVSVLEKLPPATQQTFRENVKYMGNGMADFIDKQILTVDEYDLYCHYVAGSCGIAVTKVIVQFNLATPEADSYDFSNSLGLLLQKANIITDYNEDINEEPRPRMFWPQEIWGKYAEKLADFNEPENIDTAVKCLNHMVTDAMRHIEPSLKGMVYFTDKTVFRALALLLVTAFGHLSTLYNNPNVFKEKVRQRKGRIARLVMSSRNVPGLFRTCLKLANNFESRCKQETANDPTVAMTIKRLQSIQATCRDGLAKYDTPSGLKSFCAAPTPTK
- Km [1]: 12.8 µM
- kcat [1]: 0.027 s⁻¹
- enhancement of NAD(P)H-dependent botryococcene biosynthesis [2]: up to 10 fold
- PSPP share of reaction product of primary incubation [3]: 45%

B2: SSL-2: Botryococcus braunii race B squalene synthase-like 2 enzyme; bacterial form is truncated SSL-2-tr2 (protein)
chain: MVKLVEVLQHPDEIVPILQMLHKTYRAKRSYKDPGLAFCYGMLQRVSRSFSVVIQQLPDELRHPICVFYLILRALDTVEDDMNLPNEVKIPLLRTFHEHLFDRSWKLKCGYGPYVDLMENYPLVTDVFLTLSPGAQEVIRDSTRRMGNGMADFIGKDEVHSVAEYDLYCHYVAGLVGSAVAKIFVDSGLEKENLVAEVDLANNMGQFLQKTNVIRDYLEDINEEPAPRMFWPREIWGKYAQELADFKDPANEKAAVQCLNHMVTDALRHCEIGLNVIPLLQNIGILRSCLIPEVMGLRTLTLCYNNPQVFRGVVKMRRGETAKLFMSIYDKRSFYQTYLRLANELEAKCKGEASGDPMVATTLKHVHGIQKSCKAALSSKELLAKSGSALTDDPAIRLLLLVGVVAYFAYAFNLGDVRGEHGVRALGSILDLSQKGLAVASVALLLLVLLARSRLPLLTSASSKQ
- Bisfarnesyl ether formed ([4]; substrate 10 μM 1-3H-FPP): 13.5 +/− 3.3 pmoles /h · μg protein
- Bisfarnesyl ether formed ([4]; substrate 10 μM 1-3H-farnesol): 0 pmoles /h · μg protein
- Bisfarnesyl ether formed ([4]; substrate 10 μM FPP + 10 μM 1-3H-farnesol): 16.3 +/− 0.4 pmoles /h · μg protein
- Bisfarnesyl ether formed [5]: greater than 21 pmoles
- NADPH oxidation not associated with squalene biosynthesis [5]: 2.4 pmol
- NADPH oxidized [5]: 4.6 pmol
- squalene biosynthesis [5]: 2.2 pmol
- bisfarnesyl ether formed per mole equivalent of NADPH oxidation ([5]; 21 pmoles versus 2.4 pmoles): about 10 times
- pmoles bisfarnesyl ether recovered per μg protein [5, 7]: 21.7 ± 1.8 pmoles per μg protein
- pmoles squalene recovered per μg protein [5, 7]: 2.2 ± 0.4 pmoles per μg protein
- pmoles NADPH oxidized per μg protein ([5]; 100 μM NADPH, 40 μM FPP, 15 minutes, 23° C., background subtracted): 4.6 ± 2.6 pmoles per μg protein
- NADPH oxidation rate in reaction buffer without FPP (background) ([5]; without FPP): 22 pmoles/μg protein/h
- biosynthesis from PSPP versus FPP [6]: efficiently catalyze the biosynthesis of squalene and botryococcene, respectively, from PSPP but not FPP
